The results in this text go back to publication PMC3467076.

The target in this series is T1, SNI1 (Arabidopsis thaliana, UniProt Q9SWA6 1-432).
T1 sequence: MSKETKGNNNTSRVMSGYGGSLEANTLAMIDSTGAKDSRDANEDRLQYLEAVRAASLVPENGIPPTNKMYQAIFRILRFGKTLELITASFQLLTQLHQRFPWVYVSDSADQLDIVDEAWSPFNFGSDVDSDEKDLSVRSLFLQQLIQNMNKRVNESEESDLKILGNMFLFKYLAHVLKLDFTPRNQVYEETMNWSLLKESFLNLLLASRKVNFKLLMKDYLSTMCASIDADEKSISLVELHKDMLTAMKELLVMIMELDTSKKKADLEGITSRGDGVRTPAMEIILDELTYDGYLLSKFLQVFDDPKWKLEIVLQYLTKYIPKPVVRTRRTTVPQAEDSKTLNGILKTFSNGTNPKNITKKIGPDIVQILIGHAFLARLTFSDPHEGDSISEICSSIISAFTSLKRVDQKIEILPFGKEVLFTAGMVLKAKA
Nature of the series: EMSA. (A gel shift assay detects complexes by their altered migration in electrophoresis.)

B1: E0-1-1 (dsDNA)
DNA 1: TAATAATGCTTAGTTATAAATTACT
DNA 2: AGTAATTTATAACTAAGCATTATTA
With B1, the binding result was “no binding”.
